In patent US20260209386A1 (MYTHIC THERAPEUTICS, published 2026):
Substitutions are numbered along the chain they refer to.

T1: Human PTK7 (human, UniProt Q13308 31-1070)
T1 sequence: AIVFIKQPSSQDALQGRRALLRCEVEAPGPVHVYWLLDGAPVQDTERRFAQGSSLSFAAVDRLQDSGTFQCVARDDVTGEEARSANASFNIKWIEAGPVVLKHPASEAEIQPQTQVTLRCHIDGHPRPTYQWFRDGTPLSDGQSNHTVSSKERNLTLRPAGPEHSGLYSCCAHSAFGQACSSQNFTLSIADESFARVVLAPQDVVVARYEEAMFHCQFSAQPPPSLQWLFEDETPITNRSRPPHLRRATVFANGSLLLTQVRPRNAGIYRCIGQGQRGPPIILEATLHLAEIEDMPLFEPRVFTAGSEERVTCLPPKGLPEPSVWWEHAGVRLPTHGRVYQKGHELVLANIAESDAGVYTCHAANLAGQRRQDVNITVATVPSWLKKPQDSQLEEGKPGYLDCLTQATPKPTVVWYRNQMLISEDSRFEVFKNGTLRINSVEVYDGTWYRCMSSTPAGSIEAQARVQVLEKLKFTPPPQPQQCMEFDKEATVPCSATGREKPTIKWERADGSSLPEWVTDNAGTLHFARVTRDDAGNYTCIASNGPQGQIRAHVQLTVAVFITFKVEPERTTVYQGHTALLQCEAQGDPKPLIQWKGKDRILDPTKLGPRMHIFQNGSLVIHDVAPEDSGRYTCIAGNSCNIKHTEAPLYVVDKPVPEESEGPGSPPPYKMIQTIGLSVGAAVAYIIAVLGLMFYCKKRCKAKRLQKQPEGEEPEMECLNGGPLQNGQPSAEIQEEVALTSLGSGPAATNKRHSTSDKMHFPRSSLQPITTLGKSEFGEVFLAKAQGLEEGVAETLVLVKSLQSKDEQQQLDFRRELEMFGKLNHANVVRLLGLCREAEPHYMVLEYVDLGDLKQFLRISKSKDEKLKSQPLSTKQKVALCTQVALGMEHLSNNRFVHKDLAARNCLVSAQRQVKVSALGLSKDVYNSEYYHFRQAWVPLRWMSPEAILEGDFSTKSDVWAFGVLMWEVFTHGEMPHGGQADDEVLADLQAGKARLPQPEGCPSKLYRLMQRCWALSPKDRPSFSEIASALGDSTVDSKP

B1: MYT10899 (antibody, V domains shown)
VH: EVQLVESGGGLVQPGGSLRLSCTASGFSLSNYVMNWVRQAPGKGLEWVGIIDSHGSTYYASWAKGRFTISRDTSKNTVYLQMNSLRAEDTAVYFCARGLYLWGQGTLVTVSS
VL: EIVMTQSPSTLSASVGDRVIITCQSSQSVYNNNLLAWYQQKPGKAPKLLIYYTSNLASGVPSRFSGSGSGAEFTLTISSLQPDDFATYYCQGGYNGNIYAFGQGTKLTVL
B2: MYT10917 (antibody, V domains shown)
VH: B1 VH with H54S, F94Y
VL: B1 VL
B3: MYT10952 (antibody, V domains shown)
VH: EVQLVESGGGLVQPGGSLRLSCTASGHSLSSYAMGWVRQAPGKGLEWVGFINAGGNTYYANWAKGRFTISRDTSKNTVYLQMNSLRAEDTAVYFCARRYSRASGWYDLWGQGTLVTVSS
VL: EIVMTQSPSTLSASVGDRVIITCQASQSISSYLAWYQQKPGKAPKLLIYAASTLASGVPSRFSGSGSGAEFTLTISSLQPDDFATYYCQSYSYSSGIDYGDVFGQGTKLTVL
B4: MYT10955 (antibody, V domains shown)
VH: B3 VH with H27F, S30H
VL: B3 VL
B5: MYT10989 (antibody, V domains shown)
VH: B3 VH with H27F, L108H
VL: B3 VL
B6: MYT11005 (antibody, V domains shown)
VH: B3 VH with H27F
VL: B3 VL with S52H
B7: MYT11017 (antibody, V domains shown)
VH: B3 VH with H27F
VL: B3 VL with G96H
B8: MYT11033 (antibody, V domains shown)
VH: EVQLVESGGGLVQPGGSLRLSCTASGLSLSSHWMSWVRQAPGKGLEWVGVISAGGNTYYANWAKGRFTISRDTSKNTVYLQMNSLRAEDTAVYFCARGDDGYTNAAYVSNLWGQGTLVTVSS
VL: EIVMTQSPSTLSASVGDRVIITCQASQSISSWLSWYQQKPGKAPKLLIYKASTLASGVPSRFSGSGSGAEFTLTISSLQPDDFATYYCQSYFDSTTIAFGQGTKLTVL
B9: MYT11053 (antibody, V domains shown)
VH: B8 VH with H32Y, A96H
VL: B8 VL
B10: MYT11056 (antibody, V domains shown)
VH: B8 VH with H32Y, D99H
VL: B8 VL
B11: MYT11058 (antibody, V domains shown)
VH: B8 VH with H32Y, G101H
VL: B8 VL
B12: MYT11059 (antibody, V domains shown)
VH: B8 VH with H32Y, Y102H
VL: B8 VL
B13: MYT11063 (antibody, V domains shown)
VH: B8 VH with H32Y, A106H
VL: B8 VL
B14: MYT11068 (antibody, V domains shown)
VH: B8 VH with H32Y, L111H
VL: B8 VL
B15: MYT11069 (antibody, V domains shown)
VH: B8 VH with H32Y, F94Y
VL: B8 VL
B16: MYT11078 (antibody, V domains shown)
VH: B8 VH with H32Y
VL: B8 VL with S30H
B17: MYT11079 (antibody, V domains shown)
VH: B8 VH with H32Y
VL: B8 VL with S31H
B18: MYT11081 (antibody, V domains shown)
VH: B8 VH with H32Y
VL: B8 VL with L33H
B19: MYT11084 (antibody, V domains shown)
VH: B8 VH with H32Y
VL: B8 VL with A51H
B20: MYT11096 (antibody, V domains shown)
VH: B8 VH with H32Y
VL: B8 VL with T95H
B21: MYT11100 (antibody, V domains shown)
VH: B8 VH with H32Y
VL: B8 VL with T106E, V107I, L108K
B22: MYT11142 (antibody, V domains shown)
VH: EVQLVESGGGLVQPGGSLRLSCTASGFSLSTYAMSWVRQAPGKGLEWVGMIYINDNTYYASWAKGRFTISRDTSKNTVYLQMNSLRAEDTAVYYCARDIGISYYIGVSLWGQGTLVTVSS
VL: EIVMTQSPSTLSASVGDRVIITCQASQSIGTRLSWYQQKPGKAPKLLIYGASKLATGVPSRFSGSGSGAEFTLTISSLQPDDFATYYCLGEYSYTTTDGIAFGQGTKLTVL
B23: MYT11143 (antibody, V domains shown)
VH: B22 VH with D55A, Y94F
VL: B22 VL
B24: MYT11190 (antibody, V domains shown)
VH: EVQLVESGGGLVQPGGSLRLSCTASGIDLSSYVMGWVRQAPGKGLEWVGHIYGGGGTYYATWARGRFTISRDTSKNTVYLQMNSLRAEDTAVYFCARAAADFYFNLWGQGTLVTVSS
VL: EIVMTQSPSTLSASVGDRVIITCQASQSISSYLAWYQQKPGKAPKLLIYDISDLASGVPSRFSGSGSGAEFTLTISSLQPDDFATYYCQSYYWISNSGAAFGQGTKLTVL
B25: MYT11211 (antibody, V domains shown)
VH: B24 VH with H50Y, D101H
VL: B24 VL
B26: MYT11212 (antibody, V domains shown)
VH: B24 VH with H50Y, F102H
VL: B24 VL
B27: MYT11232 (antibody, V domains shown)
VH: B24 VH with H50Y
VL: B24 VL with I51H
B28: MYT11257 (antibody, V domains shown)
VH: EVQLVESGGGLVQPGGSLRLSCTASGIDHSRYSMGWVRQAPGKGLEWVGIISYGGSTYYASWAKGRFTISRDTSKNTVYLQMNSLRAEDTAVYFCARVGYPGYSGYGYAFDAFDPWGQGTLVTVSS
VL: EIVMTQSPSTLSASVGDRVIITCQSSKSVYNDNWLSWYQQKPGKAPKLLIYGASTLASGVPSRFSGSGSGAEFTLTISSLQPDDFATYYCAGGYSSSSDNGFGQGTKLTVL
B29: MYT11259 (antibody, V domains shown)
VH: B28 VH with H29L, R31H
VL: B28 VL
B30: MYT11261 (antibody, V domains shown)
VH: B28 VH with H29L, S33H
VL: B28 VL
B31: MYT11264 (antibody, V domains shown)
VH: B28 VH with H29L, I50H
VL: B28 VL

The binders below were run against T1, Human PTK7 (assay: cell-based or functional assay).

In order of falling “Internalization, FOW @ 25 nM (fold over the wildtype, parental antibody)” value:
1. B13  2.04 fold over parental antibody
2. B23  1.61 fold over parental antibody
3. B20  1.43 fold over parental antibody
4. B24  1.32 fold over parental antibody
5. B2  1.29 fold over parental antibody
6. B22  1.29 fold over parental antibody
7. B12  1.27 fold over parental antibody
8. B11  1.26 fold over parental antibody
9. B9  1.25 fold over parental antibody
10. B16  1.24 fold over parental antibody
11. B30  1.24 fold over parental antibody
12. B26  1.23 fold over parental antibody
13. B14  1.22 fold over parental antibody
14. B15  1.22 fold over parental antibody
15. B18  1.22 fold over parental antibody
16. B7  1.2 fold over parental antibody
17. B17  1.2 fold over parental antibody
18. B8  1.19 fold over parental antibody
19. B21  1.17 fold over parental antibody
20. B27  1.15 fold over parental antibody
21. B1  1.14 fold over parental antibody
22. B19  1.14 fold over parental antibody
23. B25  1.14 fold over parental antibody
24. B29  1.14 fold over parental antibody
25. B31  1.13 fold over parental antibody
26. B28  1.11 fold over parental antibody
27. B10  1.1 fold over parental antibody
28. B5  1.09 fold over parental antibody
29. B3  1.06 fold over parental antibody
30. B4  1.05 fold over parental antibody
31. B6  1.05 fold over parental antibody
